From patent publication US9243044B2, “Anticoagulant polypeptide and applications thereof” (GUANGDONG MEDICAL COLLEGE, priority 2011, dated 2016)
Entries after “also recorded” stand apart in the source; their conditions may differ. Marks after values point to notes of the source that are not given here.

Tests used:
human fIIa (thrombin) = target: T1, human fIIa (thrombin) (Homo sapiens, UniProt P00734); test: Chromogenic assay, fIIa (thrombin); type: biochemical
T1 construct: Human coagulation factors IIa (thrombin), Xa, XIa, XIIa, EGR-fXa; purchased Haematologic Technologies Inc (United States)
Text: (§1) The recombinant anticoagulant polypeptides in the present invention were expressed in E. coli and purified in our laboratory, of which the activities against coagulation factors were investigated by chromogenic assays. Human coagulation factors IIa (thrombin), Xa, XIa, XIIa, EGR-fXa were products of Haematologic Technologies Inc (United States). Recombinant fVIIa was products of Novo-Nordisk (Denmark). Recombinant soluble tissue factor (sTF) was purchased from Protgen (Beijing, China). The following chromogenic substrates were used for these coagulation factor assays: S2765 for human fXa, S2288 for human fVIIa and fIIa, 52366 for human fXIa and fXIIa, respectively.
(§2) The chromogenic assays were carried out in a total reaction volume of 100 μl in individual wells of a 96-well microtiter plate. 50 μl fIIa, fXa, fXIa, or fXIIa (final concentration: 1 nM) was incubated with 10 μl recombinant anticoagulant polypeptide at various concentrations (or PBS control group) Assays for the detection activity of fVIIa: 50 μl fVIIa+TF (1 μM) and EGR-fXa (final concentration 500 nM) was incubated for 15 mins at 25° C., respectively. After the addition of 40 μl of prewarmed chromogenic substrate to a final concentration of 400 μM, the changes of absorbance at 405 nm were monitored by using an E1x808 kinetic microtiter reader. The data were used to calculate the velocities of response.

human fXIIa = target: T2, human fXIIa (Homo sapiens, UniProt P00748); test: Chromogenic assay, fXIIa; type: biochemical
T2 construct: Human coagulation factors IIa (thrombin), Xa, XIa, XIIa, EGR-fXa; purchased Haematologic Technologies Inc (United States)
T2 sequence (P00748 373-615 limits assumed): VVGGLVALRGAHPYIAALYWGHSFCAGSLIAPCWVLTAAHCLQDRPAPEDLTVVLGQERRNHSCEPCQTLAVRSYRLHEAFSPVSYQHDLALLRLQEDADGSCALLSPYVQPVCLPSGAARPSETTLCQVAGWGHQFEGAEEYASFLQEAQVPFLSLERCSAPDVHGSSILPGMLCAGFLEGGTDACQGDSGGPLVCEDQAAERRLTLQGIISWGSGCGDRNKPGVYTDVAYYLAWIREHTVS
T2 sequence (P00748 20-372 limits assumed): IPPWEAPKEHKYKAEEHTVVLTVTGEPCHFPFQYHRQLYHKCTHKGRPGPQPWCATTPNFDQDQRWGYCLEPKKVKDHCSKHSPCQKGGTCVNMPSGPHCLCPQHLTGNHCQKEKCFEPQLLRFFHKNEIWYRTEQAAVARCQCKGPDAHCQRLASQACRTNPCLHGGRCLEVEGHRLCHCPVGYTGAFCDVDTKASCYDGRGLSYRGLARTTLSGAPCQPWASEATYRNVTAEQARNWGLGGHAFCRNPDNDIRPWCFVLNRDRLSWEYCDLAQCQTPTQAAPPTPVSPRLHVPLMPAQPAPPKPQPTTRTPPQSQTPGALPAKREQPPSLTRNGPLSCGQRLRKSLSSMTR
Text: as §1, §2

fVIIa/TF = target: T3, fVIIa/TF (Homo sapiens, UniProt P08709); test: Chromogenic assay, fVIIa/TF; type: biochemical
T3 construct: Recombinant fVIIa was products of Novo-Nordisk (Denmark); purchased Novo-Nordisk (Denmark) for fVIIa; Protgen (Beijing, China) for sTF; Haematologic Technologies Inc for EGR-fXa
Text: as §1, §2

SD rats [1] = test: Rat inferior vena cava (venous) thrombosis; type: in vivo; details: for Thrombosis rate: rats with thrombus / rats, 4 hours after ligation
Experimental: 40 SPF grade male SD rats (provided by the laboratory animal center of Guangdong Medical College, 300-350 g body weight) were randomly divided into saline group, and rNAPTin-1 low-dose (100 μg·kg^−1), middle-dose (1 mg·kg^−1), high dose group (5 mg·kg^−1), 10 rats each group, respectively. These rats were anaesthetized with 10% chloral hydrate (250 mg/kg) by intraperitoneal injection. […] The abdominal cavity was reopened after 4 hours, and the ligated segment was opened longitudinally to check for whether there is thrombus.

SD rats [2] = test: Rat clotting time after i.v. injection, aPTT; type: in vivo; details: for Clotting time aPTT: rat plasma 2 min after injection
Experimental: (§3) 40 SPF grade male SD rats (provided by the laboratory animal center of Guangdong Medical College, 300-350 g body weight) were randomly divided into a line group, and rNAPTin-1 low-dose (100 μg·kg^−1), middle-dose (1 mg·kg^−1), high dose group (5 mg·kg^−1), 10 rats each group. 2 min after intravenous injection of various rNAPTin-1, blood was harvested from animal heart, and injected into an anticoagulant tube (3.8% sodium citrate). Animal plasma was separated by centrifugation (1500×g, 10 mins) and was used to measure aPTT and PT.

SD rats [3] = test: Rat clotting time after i.v. injection, PT; type: in vivo; details: for Clotting time PT: rat plasma 2 min after injection
Experimental: as §3

T3 sequence (P08709 61-212 limits assumed): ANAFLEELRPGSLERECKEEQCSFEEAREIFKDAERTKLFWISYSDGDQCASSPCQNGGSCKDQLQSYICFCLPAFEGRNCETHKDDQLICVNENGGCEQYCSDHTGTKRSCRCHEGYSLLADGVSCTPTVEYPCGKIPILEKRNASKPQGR
T3 sequence (P08709 213-466 limits assumed): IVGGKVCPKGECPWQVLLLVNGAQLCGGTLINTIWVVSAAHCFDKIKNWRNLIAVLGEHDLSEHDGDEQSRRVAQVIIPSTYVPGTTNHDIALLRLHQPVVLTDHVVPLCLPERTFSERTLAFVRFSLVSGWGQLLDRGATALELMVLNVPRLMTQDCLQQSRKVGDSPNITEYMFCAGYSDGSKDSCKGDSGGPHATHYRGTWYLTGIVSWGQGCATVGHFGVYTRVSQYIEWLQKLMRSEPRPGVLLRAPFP
T3 sequence (P13726 33-251 partner limits assumed): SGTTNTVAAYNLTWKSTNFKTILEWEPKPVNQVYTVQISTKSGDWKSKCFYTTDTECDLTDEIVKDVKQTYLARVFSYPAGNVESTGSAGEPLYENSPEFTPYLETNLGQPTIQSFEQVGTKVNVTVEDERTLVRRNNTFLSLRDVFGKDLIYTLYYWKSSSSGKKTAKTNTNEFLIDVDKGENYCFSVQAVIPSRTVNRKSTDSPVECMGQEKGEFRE

B1: NAPTin-1 (protein)
chain: NPSCGENERHDECSRKECDPKCKYDGTEEKDDEKPVVCLTRVCYGDCICRDGFLRNKNGACVKAEDCELD
modifications: Sequence derived from Ancylostoma caninum or Synthetic
Which “effect on fIIa activity (in words)” value (human fIIa (thrombin); 100 nM) does the source give for B1 here?
Its value is “without affecting”.

What about the “effect on fIIa activity (in words)” value (human fIIa (thrombin); 200 nM) of the same molecule?
Its value is “without affecting”.

And the “effect on fXIIa activity (in words)” value (human fXIIa; 100 nM)?
The value was “without affecting”.

What about the “effect on fXIIa activity (in words)” value (human fXIIa; 200 nM) of the same molecule?
The value was “without affecting”.

And the “effect on fVIIa/TF activity (in words)” value (fVIIa/TF; 100 nM)?
Its value is “without affecting; also recorded: no significant inhibitory activity”.

What about the “effect on fVIIa/TF activity (in words)” value (fVIIa/TF; 200 nM) of the same molecule?
The value was “without affecting”.

What about the “Inhibition rate %” value (SD rats [1]; 0.1 mg/kg i.v.) of the same molecule?
Its value is 80%.

What about the Thrombosis rate (SD rats [1]; 0.1 mg/kg i.v.) of the same molecule?
The Thrombosis rate was 2/10*.

And the “Inhibition rate %” value (SD rats [1]; 1.0 mg/kg i.v.)?
The value was 100%.

What about the Thrombosis rate (SD rats [1]; 1.0 mg/kg i.v.) of the same molecule?
The Thrombosis rate was 0/10*.

What about the “Inhibition rate %” value (SD rats [1]; 5.0 mg/kg i.v.) of the same molecule?
The value was 100%.

What about the Thrombosis rate (SD rats [1]; 5.0 mg/kg i.v.) of the same molecule?
The Thrombosis rate was 0/10*.

And the “effect on rat venous thrombosis (in words)” value (SD rats [1]; rat, in vivo)?
The value was “significant antithrombotic effect”.

And the “Clotting time aPTT” value (SD rats [2]; 0.1 mg/kg i.v.)?
The value was 23.5 ± 2.1.

What about the “Clotting time aPTT” value (SD rats [2]; 1.0 mg/kg i.v.) of the same molecule?
The value was 56.3 ± 5.1.

What about the “Clotting time aPTT” value (SD rats [2]; 5.0 mg/kg i.v.) of the same molecule?
The value was 136.7 ± 35.5.

And the “effect on rat aPTT (in words)” value (SD rats [2]; 0.1-5 mg/kg i.v.)?
The value was “prolonged significantly aPTT”.

And the “Clotting time PT” value (SD rats [3]; 0.1 mg/kg i.v.)?
The value was 11.8 ± 0.5.

And the “Clotting time PT” value (SD rats [3]; 1.0 mg/kg i.v.)?
The value was 12.0 ± 0.3.

And the “Clotting time PT” value (SD rats [3]; 5.0 mg/kg i.v.)?
Its value is 11.5 ± 0.8.

And the “effect on rat PT (in words)” value (SD rats [3]; 0.1-5 mg/kg i.v.)?
Its value is “not prolonged PT”.
